According to publication PMC6721605:

Target: dynamin-like protein B (dlpB) of Dictyostelium discoideum (Dictyostelium discoideum (endogenous in AX2)) (UniProt Q54MH8)
Test: co-IP; anti-dlpB antibodies on Dynabeads protein G; lysate of partially synchronized (mitotic) wild-type cells (10 °C 16 h, then 10 µM thiabendazole 3.5 h); lysis buffer 150 mM NaCl, 5 mM EGTA, 5 mM EDTA, 1% Triton X-100, 20 mM Tris-HCl pH 7.5; western blot with anti-dlpA and anti-dlpB

Chain of UniProt Q54MH8 (Q54MH8 whole entry): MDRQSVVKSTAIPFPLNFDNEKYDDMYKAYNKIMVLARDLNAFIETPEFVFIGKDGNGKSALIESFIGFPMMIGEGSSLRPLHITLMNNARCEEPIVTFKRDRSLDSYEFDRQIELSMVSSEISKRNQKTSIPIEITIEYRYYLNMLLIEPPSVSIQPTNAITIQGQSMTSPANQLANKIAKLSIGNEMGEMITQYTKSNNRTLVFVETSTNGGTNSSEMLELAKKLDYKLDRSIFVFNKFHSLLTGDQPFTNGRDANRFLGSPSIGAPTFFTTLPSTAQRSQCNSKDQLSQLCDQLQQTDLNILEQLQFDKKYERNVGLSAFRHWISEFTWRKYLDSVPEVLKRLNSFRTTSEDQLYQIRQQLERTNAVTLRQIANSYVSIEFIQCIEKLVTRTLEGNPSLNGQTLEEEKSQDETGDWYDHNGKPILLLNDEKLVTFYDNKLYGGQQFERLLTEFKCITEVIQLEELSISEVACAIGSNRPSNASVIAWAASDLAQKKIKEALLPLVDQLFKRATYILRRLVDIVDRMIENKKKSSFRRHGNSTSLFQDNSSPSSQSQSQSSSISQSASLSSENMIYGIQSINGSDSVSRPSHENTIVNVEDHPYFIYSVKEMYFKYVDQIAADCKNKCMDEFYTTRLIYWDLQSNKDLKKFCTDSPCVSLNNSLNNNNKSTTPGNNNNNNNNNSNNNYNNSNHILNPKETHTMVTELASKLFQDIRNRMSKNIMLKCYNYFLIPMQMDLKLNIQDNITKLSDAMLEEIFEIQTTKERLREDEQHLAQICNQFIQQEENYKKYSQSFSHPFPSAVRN

B1: dynamin-like protein A (dlpA) of Dictyostelium discoideum (natural protein)
chain: MSVFKKKDKSDDKKKKHDEETPQGTFQPASQSTSNTNLNSLASSVNNGASVGSTNGSTPNNSNGSTPTYNHNNSAEELEKQKKEEDEKRKKSELEAAAAVVAKKKEDEEKQRKEQVELERKRRDEEIRRTNAAAANAANKELNEQVEISSLEQMGKLDPSSTIHDMFSFFPNEVYNSYEKLQYFSRDLNTAVSHPEIVFVGPRSSGKSSLIEAFIGRALNIVGGGNIVGVGGSNANGCSKRVLYLQFTNNIDFEVPKVTIKKDNTIKEFDHDIIVSIEQLNENLAKRNQLTNDYIEEPIYVSIESRTTLNLTLIDSPGLLFDQSQAESNKIESIVSSLLRPSHRLIIAVESCSQDWKSMSMGQYLKKIDPELSRSTFVFTKFHHTVRGFSSTRDINKYLSGTVPDIKGFFVTLPNHQVRASYSEANRFQEKIYQAHKRDMHALEQLQYDKRYERTIGVAPLRRYILNIVWKSYQDTIPRILKHLRSKRQTAEATLNELQKQSSSLDSTKLRSIASNYTVTFLQITEKLLSGTSEGNPSANGQTLDEEKSQQGDCGEWVDAYKEAIYIDPEEWNIPYWSSKLYGGQQLERLMAEFKAVCDNSKISEVKMDDIATASGINKLNNIPNYAWAASDLTSLISRDTFVPLIEQLCERAMYIMKRLTDIADKVIDSRRKSRCIGSSPFGGNGLNNINSGGNNGININDRLSNTDMDSLDQYPFFTHHVKNLYYDFVHRAAKGCKEKCMDEFYSSRTIYWELTEHPDSSLPSIRNDHHETKTAVCQLATKLFDSIRQRITKNVLLKLYNFFLVPMQTDLWNEIQAQITCLSNEQLEQLFEVQATREQLKQEEKKQQQILEKYSQIDEQFLKAASLFCRPLSNPTPSA
amount of dlpA in the IP fraction as percent of that in supernatant: 58%
